For assay [1], the target named is USP33 zf-UBP domain, tag cleaved (for FP) (human) (UniProt Q8TEY7). Briefly: fluorescence polarisation; displacement: unlabeled peptide titrated into the domain (at two-fold the KD of the FITC-labeled peptide) with 10 nM FITC-labeled peptide; 50 mM phosphate buffer pH 7.4, DTT, room temperature; estimated KD.
Assay [2] concerns the target USP20 zf-UBP domain, tag cleaved (for FP) (human). The assay is described as above.
The target of assay [3] is USP11 DUSP-UBL tandem domain (human) (UniProt P51784). Briefly: fluorescence polarisation; displacement: serial dilution of the unlabelled peptide against the domain (at two-fold the KD of the FITC-labelled peptide) in complex with 10 nM FITC-labelled peptide; 50 mM phosphate buffer pH 7.4; room temperature; three technical replicates; sigmoidal dose-response fit. In general terms: Polarisation of emitted light reports the rotation of a fluorescent probe.
Chain of USP11 DUSP-UBL tandem domain (human) (P51784 whole entry, the tested form may be a part): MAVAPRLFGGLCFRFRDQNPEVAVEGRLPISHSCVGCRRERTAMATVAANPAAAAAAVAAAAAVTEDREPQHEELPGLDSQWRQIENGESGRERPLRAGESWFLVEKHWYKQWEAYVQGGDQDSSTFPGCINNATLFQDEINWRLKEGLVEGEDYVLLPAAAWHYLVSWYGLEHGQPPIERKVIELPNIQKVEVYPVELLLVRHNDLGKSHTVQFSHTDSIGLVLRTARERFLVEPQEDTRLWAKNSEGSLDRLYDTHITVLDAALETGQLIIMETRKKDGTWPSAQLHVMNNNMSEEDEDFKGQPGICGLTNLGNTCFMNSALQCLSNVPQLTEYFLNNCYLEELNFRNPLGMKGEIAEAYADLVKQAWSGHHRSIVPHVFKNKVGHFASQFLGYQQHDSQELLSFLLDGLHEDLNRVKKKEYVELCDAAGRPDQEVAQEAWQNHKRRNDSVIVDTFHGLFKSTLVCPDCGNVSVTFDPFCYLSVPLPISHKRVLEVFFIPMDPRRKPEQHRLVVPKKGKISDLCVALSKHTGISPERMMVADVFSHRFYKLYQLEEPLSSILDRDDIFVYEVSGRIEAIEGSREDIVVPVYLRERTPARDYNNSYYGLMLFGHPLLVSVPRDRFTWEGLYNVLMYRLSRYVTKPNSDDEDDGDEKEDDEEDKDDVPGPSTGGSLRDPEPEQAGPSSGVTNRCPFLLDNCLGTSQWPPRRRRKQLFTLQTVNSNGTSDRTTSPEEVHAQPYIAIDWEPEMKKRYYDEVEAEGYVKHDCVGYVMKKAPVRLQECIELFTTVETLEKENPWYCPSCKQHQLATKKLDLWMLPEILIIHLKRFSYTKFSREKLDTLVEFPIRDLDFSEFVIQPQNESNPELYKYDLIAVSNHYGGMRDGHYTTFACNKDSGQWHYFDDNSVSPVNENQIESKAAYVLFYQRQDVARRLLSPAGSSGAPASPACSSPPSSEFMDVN

The target of assay [4] is USP33 zf-UBP domain (human) (UniProt Q8TEY7). The assay is described as above.
Chain of USP33 zf-UBP domain (human) (Q8TEY7 whole entry, the tested form may be a part): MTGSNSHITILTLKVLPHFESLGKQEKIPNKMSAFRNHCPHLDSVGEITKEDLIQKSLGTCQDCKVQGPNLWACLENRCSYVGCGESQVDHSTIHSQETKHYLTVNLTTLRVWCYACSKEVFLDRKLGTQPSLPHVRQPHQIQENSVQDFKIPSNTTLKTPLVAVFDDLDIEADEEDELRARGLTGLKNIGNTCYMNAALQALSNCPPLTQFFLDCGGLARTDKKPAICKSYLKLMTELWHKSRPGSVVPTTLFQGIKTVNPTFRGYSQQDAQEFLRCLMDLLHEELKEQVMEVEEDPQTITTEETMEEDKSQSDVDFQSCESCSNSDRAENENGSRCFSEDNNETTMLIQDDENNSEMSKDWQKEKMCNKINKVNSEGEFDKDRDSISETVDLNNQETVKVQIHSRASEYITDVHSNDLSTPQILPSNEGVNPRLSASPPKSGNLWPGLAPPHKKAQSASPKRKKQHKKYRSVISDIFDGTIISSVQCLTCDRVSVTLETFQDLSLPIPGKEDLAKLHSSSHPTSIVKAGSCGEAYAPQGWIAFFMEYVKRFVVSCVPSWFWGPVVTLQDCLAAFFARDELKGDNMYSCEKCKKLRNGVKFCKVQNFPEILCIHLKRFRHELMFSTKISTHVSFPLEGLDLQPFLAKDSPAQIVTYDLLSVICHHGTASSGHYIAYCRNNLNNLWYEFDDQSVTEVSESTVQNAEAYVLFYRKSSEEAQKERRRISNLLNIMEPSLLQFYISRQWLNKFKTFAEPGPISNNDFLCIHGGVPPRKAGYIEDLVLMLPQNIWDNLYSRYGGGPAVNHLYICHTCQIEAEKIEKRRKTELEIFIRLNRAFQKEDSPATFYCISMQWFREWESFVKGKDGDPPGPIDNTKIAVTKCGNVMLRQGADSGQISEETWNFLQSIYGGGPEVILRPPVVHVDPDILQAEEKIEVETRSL
The target of assay [5] is USP20 zf-UBP domain (human) (UniProt Q9Y2K6). The description is as above.
Chain of USP20 zf-UBP domain (human) (Q9Y2K6 whole entry, the tested form may be a part): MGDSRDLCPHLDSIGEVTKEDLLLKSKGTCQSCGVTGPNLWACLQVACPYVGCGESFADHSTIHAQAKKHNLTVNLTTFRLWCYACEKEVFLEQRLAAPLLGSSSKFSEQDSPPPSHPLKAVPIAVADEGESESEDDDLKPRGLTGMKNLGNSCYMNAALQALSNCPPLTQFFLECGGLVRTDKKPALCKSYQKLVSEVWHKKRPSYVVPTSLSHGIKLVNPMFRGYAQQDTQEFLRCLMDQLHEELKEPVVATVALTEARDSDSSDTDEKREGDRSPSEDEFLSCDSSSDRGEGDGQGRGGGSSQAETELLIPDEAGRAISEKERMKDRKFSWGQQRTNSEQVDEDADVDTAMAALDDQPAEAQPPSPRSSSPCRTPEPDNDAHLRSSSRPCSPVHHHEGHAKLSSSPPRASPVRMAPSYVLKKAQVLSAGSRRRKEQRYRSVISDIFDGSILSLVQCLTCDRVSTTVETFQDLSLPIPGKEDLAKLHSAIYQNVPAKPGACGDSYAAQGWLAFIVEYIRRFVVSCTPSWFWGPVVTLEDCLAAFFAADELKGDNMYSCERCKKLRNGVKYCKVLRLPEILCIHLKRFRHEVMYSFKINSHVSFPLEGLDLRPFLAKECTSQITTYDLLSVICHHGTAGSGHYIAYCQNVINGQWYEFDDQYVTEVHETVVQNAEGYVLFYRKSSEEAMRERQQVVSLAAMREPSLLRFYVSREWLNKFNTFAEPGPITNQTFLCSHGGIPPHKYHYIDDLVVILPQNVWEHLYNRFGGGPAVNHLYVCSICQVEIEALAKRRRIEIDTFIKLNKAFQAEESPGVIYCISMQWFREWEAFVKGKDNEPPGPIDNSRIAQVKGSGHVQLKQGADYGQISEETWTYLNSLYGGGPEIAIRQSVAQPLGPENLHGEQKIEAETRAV

Data on three molecules can be found in publication PMC13376213, “Systematic discovery of motif-based interactions of the auxiliary domains of USP family deubiquitinases” (Nature Communications, 2026).

Chain of USP33 zf-UBP domain, tag cleaved (for FP) (human) (Q8TEY7 whole entry, the tested form may be a part): as the sequence (Q8TEY7 whole entry, the tested form may be a part) above
Chain of USP20 zf-UBP domain, tag cleaved (for FP) (human) (Q9Y2K6 whole entry, the tested form may be a part): as the sequence (Q9Y2K6 whole entry, the tested form may be a part) above

One may read the Kd as the constant that tells how readily two partners part at equilibrium. Turning to Ac-AQSKTQLEVRPV-NH2 [ROBO1_(1495-1506) peptide], the values for the Kd in assay [1] and in assay [2] were 14 µM and 82 µM, respectively.

In turn, Ac-SAVTYPDWIGQSYSEV-NH2 [ORAI1 48-63 peptide, unlabelled] showed a Kd in assay [3] of 207 µM.

As to Ac-YLQPSSKASLESTSDL-NH2 [CEP192 2073-2087 peptide], the dissociation constant (Kd) in assay [4] stood at 14.1 µM; in assay [5], 37.1 µM.
